Experiments:
[1] = target: wild type human GM-CSF (human) (UniProt P04141); assay: SPR (Biacore), human GM-CSF coated on CM5 chip, antibody injected
[2] = target: human GM-CSF mutant M5 (I101 to V117 replaced by murine sequence) (human); assay: semi-quantitative ELISA; GM-CSF polypeptide coated in 2-fold dilutions (x axis = coating concentration), BD antibody fixed at 310 ng/ml, rabbit anti-rat IgG-HRP, absorbance 450 nm
[3] = target: human GM-CSF mutant M5b (S96 to N110 replaced by murine sequence) (human); assay: as above
Chain of human GM-CSF mutant M5b (S96 to N110 replaced by murine sequence) (human) (P04141 other isoform, or with tags, fused parts or gaps mutant): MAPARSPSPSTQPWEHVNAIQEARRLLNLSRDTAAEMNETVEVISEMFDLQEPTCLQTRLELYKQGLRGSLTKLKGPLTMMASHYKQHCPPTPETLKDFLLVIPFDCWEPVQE

Chain of wild type human GM-CSF (human) (P04141 other isoform, or with tags, fused parts or gaps limits assumed): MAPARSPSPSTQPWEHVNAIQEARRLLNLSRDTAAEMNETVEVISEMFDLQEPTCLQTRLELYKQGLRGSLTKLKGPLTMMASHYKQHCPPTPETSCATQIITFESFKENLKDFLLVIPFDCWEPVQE
Chain of human GM-CSF mutant M5 (I101 to V117 replaced by murine sequence) (human) (P04141 other isoform, or with tags, fused parts or gaps mutant): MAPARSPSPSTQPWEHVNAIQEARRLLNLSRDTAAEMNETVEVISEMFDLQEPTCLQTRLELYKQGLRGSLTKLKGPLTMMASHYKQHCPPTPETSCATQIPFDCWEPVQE

- Ka [1]: > 5.2e+09 M⁻¹
- Kd [1]: < 0.19 nM
- koff [1]: < 1e-05 s⁻¹
- kon [1]: 52000 M⁻¹ s⁻¹
- EC50 (read off the curve) [2]: 300 µg/mL
- EC50 (read off the curve) [3]: 400 µg/mL
Substance: commercially available rat anti-human GM-CSF antibody from BD Biosciences (Cat No. 554501)
